Experiment [1] concerns the target T1, Rat Serum Albumin (rat, UniProt P02770 25-608).
T1 construct: mature; Bought purified serum protein; also called RSA; rat SA
Description: SPR (BIAcore), purified dAb. The procedure:
(§1) Unique dAbs were expressed as bacterial supernatants in 0.5 L shake flasks in Onex media at 30° C. for 48 hrs at 250 rpm. dAbs were purified from the culture media by absorption to protein L streamline followed by elution with 100 mM glycine pH2.0.

The next experiment has as its target T2, mouse serum albumin (mouse, UniProt P07724 25-608).
T2 construct: mature; Bought purified serum protein; also called MSA; mouse SA
As to the kind of experiment: SPR (BIAcore), purified dAb. On the procedure: as §1

The target of a further experiment is T3, Human Serum Albumin (human, UniProt P02768 25-609).
T3 construct: mature; Bought purified serum protein; Immobilised on CM5 chips; also called HSA; human SA
T3 sequence (P02768 25-609): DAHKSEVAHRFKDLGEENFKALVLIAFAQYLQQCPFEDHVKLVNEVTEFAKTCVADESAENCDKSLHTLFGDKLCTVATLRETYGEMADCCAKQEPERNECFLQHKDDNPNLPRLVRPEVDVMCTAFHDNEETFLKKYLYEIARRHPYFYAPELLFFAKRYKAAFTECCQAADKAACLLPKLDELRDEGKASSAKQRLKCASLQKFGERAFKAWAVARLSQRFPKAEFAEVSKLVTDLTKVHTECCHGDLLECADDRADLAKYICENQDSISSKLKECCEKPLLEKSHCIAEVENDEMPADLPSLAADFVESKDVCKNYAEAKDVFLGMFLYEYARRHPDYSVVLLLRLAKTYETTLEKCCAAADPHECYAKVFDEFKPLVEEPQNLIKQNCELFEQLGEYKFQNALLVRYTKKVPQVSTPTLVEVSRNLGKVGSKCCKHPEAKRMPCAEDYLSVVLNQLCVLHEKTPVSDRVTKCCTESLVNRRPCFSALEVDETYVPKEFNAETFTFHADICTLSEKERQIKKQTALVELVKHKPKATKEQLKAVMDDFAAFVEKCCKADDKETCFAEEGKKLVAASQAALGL
As to the kind of experiment: SPR (BIAcore), purified dAb. The procedure:
as §1

Experiment [2] deals with T4, Cynomolgus monkey Serum Albumin (Cynomolgus monkey, UniProt A2V9Z4 25-608).
T4 construct: mature; Purified in house; also called CSA; cyno serum albumin
T4 sequence (A2V9Z4 25-608): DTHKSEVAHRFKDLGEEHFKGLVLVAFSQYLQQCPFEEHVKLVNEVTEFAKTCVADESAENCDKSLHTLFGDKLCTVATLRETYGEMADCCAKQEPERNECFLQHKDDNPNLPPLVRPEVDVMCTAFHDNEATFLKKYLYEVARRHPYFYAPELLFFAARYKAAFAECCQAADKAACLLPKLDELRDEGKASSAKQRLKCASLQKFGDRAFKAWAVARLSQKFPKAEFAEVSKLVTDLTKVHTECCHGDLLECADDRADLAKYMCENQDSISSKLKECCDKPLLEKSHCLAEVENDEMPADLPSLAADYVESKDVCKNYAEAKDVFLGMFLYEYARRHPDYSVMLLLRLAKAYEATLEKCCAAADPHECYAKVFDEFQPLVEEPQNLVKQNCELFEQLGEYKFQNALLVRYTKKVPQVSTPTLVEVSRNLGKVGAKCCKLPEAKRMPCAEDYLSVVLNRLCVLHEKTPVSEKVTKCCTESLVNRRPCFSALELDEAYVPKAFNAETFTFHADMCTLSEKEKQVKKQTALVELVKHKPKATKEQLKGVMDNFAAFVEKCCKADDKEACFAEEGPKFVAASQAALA
As to the kind of experiment: SPR (BIAcore), purified dAb. On the procedure:
as §1

Experiment [3] has as its target T1, Rat Serum Albumin. Description: SPR (BIAcore), purified dAb; second protein batch, second analyst. The procedure: as §1
In experiment [4] the target is T4, Cynomolgus monkey Serum Albumin. The description is as above. The procedure:
as §1

T1 sequence (P02770 25-608): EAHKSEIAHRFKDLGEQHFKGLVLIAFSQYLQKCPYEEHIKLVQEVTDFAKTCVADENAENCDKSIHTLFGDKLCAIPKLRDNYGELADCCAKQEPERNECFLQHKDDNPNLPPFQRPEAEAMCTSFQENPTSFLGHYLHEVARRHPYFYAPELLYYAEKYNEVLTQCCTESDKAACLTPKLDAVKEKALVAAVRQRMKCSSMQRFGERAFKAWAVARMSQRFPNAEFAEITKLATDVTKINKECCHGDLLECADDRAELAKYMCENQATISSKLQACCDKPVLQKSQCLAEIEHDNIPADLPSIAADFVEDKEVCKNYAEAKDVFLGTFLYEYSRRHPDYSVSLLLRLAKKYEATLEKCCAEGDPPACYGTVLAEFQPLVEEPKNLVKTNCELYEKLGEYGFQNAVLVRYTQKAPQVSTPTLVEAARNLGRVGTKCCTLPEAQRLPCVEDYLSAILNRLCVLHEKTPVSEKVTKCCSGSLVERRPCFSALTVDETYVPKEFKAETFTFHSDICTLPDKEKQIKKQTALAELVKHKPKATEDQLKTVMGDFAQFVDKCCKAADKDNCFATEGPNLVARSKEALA

B1: DOM7h-14-10 (other)
VL: DIQMTQSPSSLSASVGDRVTITCRASQWIGSQLSWYQQKPGKAPKLLIMWRSSLQSGVPSRFSGSGSGTDFTLTISSLQPEDFATYYCAQGLRHPKTFGQGTKVEIKR
notes: Vk dAb (AlbudAb); tag not included here
On to B1, for which the figures for the dissociation constant Kd with Rat Serum Albumin [1] and with mouse serum albumin were 9.4 nM and 30.1 nM, respectively.

B2: DOM7h-14-74 (other)
VL: DIQMTQSPSSLSASVGDRVTITCRASQWIGSQLSWYQQKPGKAPKLLIMWRSSLQSGVPSRFSGSGSGTDFTLTISSLQPEDFATYYCAQGLRHPKTYGKGTKVENKW
notes: pDOM5 myc tag not included
For B2, the dissociation constant Kd in the experiment with Human Serum Albumin amounted to 4.8 nM; in the experiment with Rat Serum Albumin [1], 4.3 nM; in experiment [2], 6.3 nM; with mouse serum albumin, 23.5 nM; in the experiment with Rat Serum Albumin [3], 11.6 nM; in experiment [4], 2.7 nM.

B3: DOM7h-14-120 (other)
VL: DIQMTQSPSSLSASVGDRVTITCRASQWIGSQLSWYQQKPGKAPKLLIMWRSSLQSGVPSRFSGSGSGTDFTLTISSLQPEDFATYYCAQGLRHPKTYGQGTKVENKR
Take B3: the Kd with Human Serum Albumin worked out at 14 nM; with Rat Serum Albumin [1], 2.7 nM; in experiment [2], 3.7 nM.

B4: DOM7h-14-101 (other)
VL: DIQMTQSPSSLSASVGDRVTITCRASQWIGSQLSWYQQKPGKAPKLLIMWRSALQNGVPSRFSGSGSGTDFTLTISSLQPEDFATYYCAQGLRHPKTFGQGTKVEIKW
notes: pDOM5 myc tag not included
Regarding B4, the dissociation constant Kd in the experiment with Human Serum Albumin came to 8.4 nM; with Rat Serum Albumin [1] it was 5.8 nM; in experiment [2], 11.6 nM; in the experiment with mouse serum albumin, 16.8 nM.

B5: DOM7h-14-116 (other)
VL: DIQMTQSPSSLSASVGDRVTITCRASQWIGSQLSWYQQKPGKAPKLLIMWRSALQSGVPSRFSGSGSGTDFTLTISSLQPEDFATYYCAQGLRYPKTFGQGTKVEIKW
notes: pDOM5 myc tag not included
Regarding B5, the dissociation constant Kd in the experiment with Human Serum Albumin is 7 nM; with Rat Serum Albumin [1], 8.5 nM; in experiment [2], 22.8 nM; with mouse serum albumin, 19.1 nM.

B6: DOM7h-14-123 (other)
VL: DIQMTQSPSSLSASVGDRVTITCRASQWIGSQLSWYQQKPGKAPKLLIMWRSSLQSGVPSRFSGSGSGTDFTLTISSLQPEDFATYYCAQGLRHPKTYGKGTKVENKR
Consider B6, for which the values for the Kd (with Human Serum Albumin; in the experiment with Rat Serum Albumin [1]; in experiment [2]) were 12 nM, 5.1 nM and 8 nM, respectively.

B7: DOM7h-14-100 (other)
VL: DIQMTQSPSSLSASVGDRVTITCRASQWIGSQLSWYQQKPGKAPKLLIMWRSSLQSGVPSRFSGSGSGTDFTLTISSLQPEDFATYYCAQGLRHPKTYGQGTKVENKW
notes: pDOM5 myc tag not included
As for B7, the Kd with Human Serum Albumin came to 4.5 nM; in the experiment with Rat Serum Albumin [1], 3.7 nM; in experiment [2] it was 6.4 nM; with mouse serum albumin it was 8 nM; with Rat Serum Albumin [3], 29 nM; in experiment [4], 6.1 nM.

B8: DOM7h-14-76 (other)
VL: DIQMTQSPSSLSASVGDRVTITCRASQWIGSQLSWYQQKPGKAPKLLIMWRSSLQSGVPSRFSGSGSGTDFTLTISSLQPEDFATYYCAQGLKHPKTYGQGTKVEIKW
notes: pDOM5 myc tag not included
Consider B8, for which the Kd in the experiment with Human Serum Albumin is 6.3 nM; with Rat Serum Albumin [1], 4.7 nM; in experiment [2], 19.9 nM; with mouse serum albumin, 11.5 nM.

B9: DOM7h-14-122 (other)
VL: DIQMTQSPSSLSASVGDRVTITCRASQWIGSQLSWYQQKPGKAPKLLIMWRSSLQSGVPSRFSGSGSGTDFTLTISSLQPEDFATYYCAQGLRHPKTYGKGTKVEIKR
With B9, the equilibrium dissociation constant (Kd) with Rat Serum Albumin [1] was found to be 7.8 nM.

B10: DOM7h-14-119 (other)
VL: DIQMTQSPSSLSASVGDRVTITCRASQWIGSQLSWYQQKPGKAPKLLIMWRSSLQSGVPSRFSGSGSGTDFTLTISSLQPEDFATYYCAQGLRHPKTYGQGTKVEIKR
B10 showed a Kd with Rat Serum Albumin [1] of 6.2 nM.

B11: DOM7h-14-56 (other)
VL: DIQMTQSPSSLSASVGDRVTITCRASQWIGSQLSWYQQKPGKAPMLLIMWSSSLQSGVPSRFSGSGSGTDFTLTISSLQPEDFATYYCAQGLRHPKTFGQGTKVEIKW
notes: pDOM5 myc tag not included
B11: the Kd with Human Serum Albumin was determined as 11.1 nM; with Rat Serum Albumin [1], 3.4 nM; in experiment [2] it was 18.7 nM; with mouse serum albumin, 6.3 nM.

B12: DOM7h-14-115 (other)
VL: DIQMTQSPSSLSASVGDRVTITCRASQWIGSQLSWYQQKPGKAPKLLIMWRSALQSGVPSRFSGSGSGTDFTLTISSLQPEDFATYYCAQGLRHPKTYGQGTKVEIKW
notes: pDOM5 myc tag not included
Regarding B12, the Kd with mouse serum albumin turned out to be 9.8 nM.

B13: DOM7h-14-82 (other)
VL: DIQMTQSPSSLSASVGDRVTITCRASQWIGSQLSWYQQKPGKAPKLLIMWRSSLQSGVPSRFSGSGSGTDFTLTISSLQPEDFATYYCAQGMRHPKTFGQGTKVEIKW
notes: pDOM5 myc tag not included
On to B13, for which the Kd was found to be 15.4 nM with Human Serum Albumin, 11.8 nM with Rat Serum Albumin [1], 170 nM in experiment [2] and 32.3 nM with mouse serum albumin.

B14: DOM7h-14-65 (other)
VL: DIQMTQSPSSLSASVGDRVTITCRASQWIGSQLSWYQQKPGKAPKLLIMWRSALQSGVPSRFSGSGSGTDFTLTISSLQPEDFATYYCAQGLRHPKTFGQGTKVEIKW
notes: pDOM5 myc tag not included
Turning to B14, the values for the Kd (with mouse serum albumin; with Rat Serum Albumin [3]; in experiment [4]) were 15.3 nM, 25 nM and 16 nM, respectively.

B15: DOM7h-14-109 (other)
VL: DIQMTQSPSSLFASVGDRVTITCRASQWIGSQLSWYQQKPGKAPKLLIMWRSSLQSGVPSRFSGSGSGTDFTLTISSLQPEDFATYYCAQGLRKPKTFGQGTKVKIKW
notes: pDOM5 myc tag not included
As to B15, the Kd was 108 nM with Human Serum Albumin, 15.4 nM with Rat Serum Albumin [1], 17.6 nM in experiment [2] and 58.1 nM with mouse serum albumin.

(Values after patent US20130230519A1 (published 2013).)
